Source: patent publication US20170204184A1 (CB THERAPEUTICS, published 2017)

Experiments:
PD-L1 on 293T cells [1] = target: T1, PD-L1 on 293T cells (UniProt Q9NZQ7 19-290); assay: flow cytometry on PD-L1-293T cells
T1 construct: whole, on cells; also called PD-L1-293T; 293T-PD-L1 cells
Description: Cell binding analyses of anti-PD-L1 antibodies were performed based on binding to a 293T cell line stably expressing PD-L1 (PD-L1-293T). 2×10⁵ 293T-PD-L1 cells were added into each well of 96-well culture plates and incubated with the indicated antibody (20 μg/ml with the dilution of 1:5) at 4° C. for 1 h. After the cells were washed three times with FACS buffer, the secondary antibody (PE Goat anti-mouse: 1:200; PE mouse anti-human: 1:10) was added to the cells at 100 μl/well, and incubated at 4° C. for 40 min. Cells were washed three times with FACS buffer and analyzed by FACS Array.

Human PD-L1 = target: T2, Human PD-L1 (human, UniProt Q9NZQ7 19-238, limits assumed); assay: SPR (Biacore 3000), antibody captured, PD-L1 as analyte, 1:1 fit
T2 construct: also called PD-L1 analyte (Biacore); hPD-L1
T2 sequence (Q9NZQ7 19-238 limits assumed): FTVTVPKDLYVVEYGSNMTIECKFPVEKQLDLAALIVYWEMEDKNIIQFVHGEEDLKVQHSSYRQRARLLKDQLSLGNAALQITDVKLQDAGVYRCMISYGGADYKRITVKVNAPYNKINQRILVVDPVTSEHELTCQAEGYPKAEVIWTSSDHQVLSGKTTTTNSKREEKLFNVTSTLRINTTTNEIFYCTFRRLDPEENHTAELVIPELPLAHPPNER
Description: The binding kinetics between PD-L1 and PD-L1 antibodies were measured by Biacore analysis, which was performed at 25° C. on a Biacore3000 instrument and recorded with a data collection rate of 1 Hz. Polyclonal rabbit anti-mouse IgG (GE, BR-1008-38) was diluted with 10 mM pH 5.0 sodium acetate and immobilized onto reference and experiment flow cells of a CM5 biosensor chip to around 15000 RU using an amine coupling kit (GE, BR10050). […] PD-L1 analyte series were prepared by diluting the stocks with running buffer to 100 nM followed by 2× serial dilution in the same buffer down to 0.78 nM. Analytes were injected in series over the reference and experiment flow cells for 3 minutes at a flow rate of 30 μL/minute. Running buffer (PBS with 0.05% P20) was allowed to flow over for 10 minutes at a flow rate of 30 μL/minute. At the end of each cycle, the biosensor surface was regenerated with 3 minutes injection of 10 mM pH1.7 Glycine-HCl buffer at a flow rate of 10 μL/minute. For each analyte sample injection (i.e. each cycle), binding responses obtained from the experimental biosensor surface were double referenced by subtracting simultaneously recorded responses from the reference surface followed by additional subtraction of responses from a single referenced running buffer sample. The association and dissociation rate constants (ka and kd) were determined simultaneously by fitting double-referenced sensorgrams of the entire titration series to Langmuir model (1:1) using Biaevaluation 4.0 software. The dissociation constant, KD, was calculated from the determined rate constants by the relation KD=kd/ka.

hPD-L1-hFc = target: T3, hPD-L1-hFc (human); assay: ELISA, coated PD-L1-hFc
T3 construct: it may hold a signal peptide ('open reading frame of the extracellular domain'); also called PD-L1-hFc protein; human PD-L1 extracellular domain fused with human Fc tag
T3 sequence (chain, as listed by the source limits assumed): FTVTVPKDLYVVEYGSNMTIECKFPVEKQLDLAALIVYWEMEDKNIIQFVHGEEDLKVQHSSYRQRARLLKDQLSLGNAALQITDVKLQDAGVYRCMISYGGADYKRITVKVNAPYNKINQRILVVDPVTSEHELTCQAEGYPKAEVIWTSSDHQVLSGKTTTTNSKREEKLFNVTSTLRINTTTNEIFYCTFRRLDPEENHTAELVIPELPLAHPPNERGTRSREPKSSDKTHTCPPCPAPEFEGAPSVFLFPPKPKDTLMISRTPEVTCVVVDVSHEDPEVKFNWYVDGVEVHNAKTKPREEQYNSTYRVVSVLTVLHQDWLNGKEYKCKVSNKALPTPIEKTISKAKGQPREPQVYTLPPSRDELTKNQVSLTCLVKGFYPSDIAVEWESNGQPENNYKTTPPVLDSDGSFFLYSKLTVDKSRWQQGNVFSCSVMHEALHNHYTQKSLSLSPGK
Description: ELISA binding analyses were conducted based on human PD-L1-mFc (for chimeric and humanized antibody detection) and PD-L1-hFc protein (for hybridoma antibody detection). 96-well plates (Costar, Cat No: 9018) were coated with 100 μL of 2 μg/ml PD-L1-mFc (Crownbio) in coating buffer PBS (Hyclone, Cat No: SH30256.01B) overnight at 4° C. The wells were aspirated and non-specific binding sites were blocked by adding 200 μL of blocking buffer (PBS with 1% (w/v) of bovine serum albumin (BSA, Roche, Cat No:738328)) and incubating for 1 hour at 37° C. After the plates were washed three times with wash buffer (PBS with 0.05% (v/v) Tween20 (Sigma, Cat No:P1379)), 100 μL/well of 1:10 serial dilutions of hybridoma (FIG. 1), chimeric (FIG. 2), or humanized (FIG. 3) anti-PD-L1 antibodies in blocking buffer (starting from 20 μg/mL) were added and incubated at room temperature for 1 hour. The plates were washed and incubated with 100 μL/well of Goat anti-Mouse IgG (H+L) (Thermo, Cat No: 31432) in blocking buffer for 60 min. After the plates were washed, 100 μL/well of substrate solution TMB (eBioscience, Cat No: 00-4201-56) were added and the plates were incubated for 2 min at room temperature. 100 μL/well of stop solution (2N H₂SO₄) was added to stop the reaction. The colorimetric signals were developed and read at 450 nm using an Auto Plate SpectraMax Plus (Supplier: Moleculer Devices; Model: MNR0643; Software: SoftMax Pro v5.4). Data were analyzed using GraphPad Prism 5 and EC50 was calculated (FIGS. 1-3; Tables 5-7).

PD-L1 on 293T cells [2] = target: T1, PD-L1 on 293T cells; assay: flow cytometry competition: blocks biotin-labeled PD-1 binding to PD-L1-293T cells
Description: Briefly, PD-L1-293T cells were suspended in FACS buffer (PBS with 3% fetal calf serum). Various concentrations of the hybridoma (FIG. 10), chimeric (FIG. 11), or humanized (FIG. 12) anti-PD-L1 antibodies were added to the cell suspension and incubated at 4° C. for 60 minutes in 96 well plates. […] The cells were washed 3 times with PBS and incubated with mouse anti-biotin PE (Biolegend, cat# 409004). The cell-associated fluorescence was then detected by flow cytometry analysis using FACS array.

[3] = target: T4, biotinylated human PD-L1-mFc (human, biotinylated (sites not given)); assay: competition ELISA: blocks PD-L1-mFc-biotin binding to coated PD-1-hFc
T4 construct: also called PDL-1-mFc-biotin
T4 sequence (chain, as listed by the source limits assumed): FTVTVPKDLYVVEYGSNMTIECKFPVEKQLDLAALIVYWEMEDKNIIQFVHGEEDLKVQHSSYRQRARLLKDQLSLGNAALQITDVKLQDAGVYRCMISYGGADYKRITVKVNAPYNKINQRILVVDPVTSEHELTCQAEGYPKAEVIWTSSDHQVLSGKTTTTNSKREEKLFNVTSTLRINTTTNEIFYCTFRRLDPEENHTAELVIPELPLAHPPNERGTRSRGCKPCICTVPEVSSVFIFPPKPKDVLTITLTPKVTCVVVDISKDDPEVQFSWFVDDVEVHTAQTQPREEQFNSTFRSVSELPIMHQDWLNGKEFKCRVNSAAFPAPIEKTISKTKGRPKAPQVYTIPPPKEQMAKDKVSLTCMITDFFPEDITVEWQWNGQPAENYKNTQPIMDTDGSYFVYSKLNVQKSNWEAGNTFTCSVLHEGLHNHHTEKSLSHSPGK
Description: The wells were aspirated and non-specific binding sites were blocked by adding 200 μL of blocking buffer (PBS with 1% (w/v) of bovine serum albumin (BSA, Roche, Cat No:738328)) and incubating for 1 hour at 37° C. After the plate was washed three times with wash buffer (PBS with 0.05% (v/v) Tween20 (Sigma, Cat No:P1379)), 100 μL/well of 1:3 serial dilutions of hybridoma (FIG. 4), chimeric (FIG. 5), or humanized (FIG. 6) anti-PD-L1 antibodies in blocking buffer (starting from 20 μg/mL) were added and incubated at 37° C. for 1 hour. […] After the plate was washed 3 times, secondary antibody (Avidin HRP eBioscience cat No.: E07418-1632, 1:500, 100 μl/well) was added and incubated at 37° C. for 0.5 hour. After the plate was washed, 100 μL/well of substrate solution TMB (eBioscience, Cat No: 00-4201-56) was added and the plate was incubated for 3min at room temperature. 100 μL/well of stop solution (2N H₂SO₄) was added to stop the reaction. The colorimetric signals were developed and read at 450 nm using an Auto Plate SpectraMax Plus (Supplier: Moleculer Devices; Model: MNR0643; Software: SoftMax Pro v5.4). Data were analyzed using GraphPad Prism 5 and IC50 was calculated (FIGS. 4-6; Tables 8-10).

T1 sequence (Q9NZQ7 19-290 limits assumed): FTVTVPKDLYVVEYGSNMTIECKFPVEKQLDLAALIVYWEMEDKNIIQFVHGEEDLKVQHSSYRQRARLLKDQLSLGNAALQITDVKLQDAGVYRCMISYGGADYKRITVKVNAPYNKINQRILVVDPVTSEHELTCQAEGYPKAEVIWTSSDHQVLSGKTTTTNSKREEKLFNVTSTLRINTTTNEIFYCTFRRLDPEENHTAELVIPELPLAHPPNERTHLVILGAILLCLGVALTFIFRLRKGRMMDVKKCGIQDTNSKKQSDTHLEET

| EC50 (PD-L1 on 293T cells [1]) | Kd (Human PD-L1) | EC50 (hPD-L1-hFc) | IC50 (PD-L1 on 293T cells [2]) | IC50 [3] | Binder |
| --- | --- | --- | --- | --- | --- |
| 0.0474 µg/mL | 6.01 nM | 0.0314 µg/mL | 0.0381 µg/mL | 0.892 µg/mL | m7B4 (antibody, V domains shown, Murine hybridoma IgG (printed 'mIgG'); also called 7B4-mIgG; 7B4 murine) VH: EVKLFESGGGLVQPGGSLKLSCVASGFDFSTYWMHWVRQAPGQGLEWIGQINPDSTTINYAPSLKDRFIISRDNAKNTLFLQMSKVRSEDTALYYCAKPGDYGYDFDCWGQGTTLTVSS VL: DVLMTQTPLYLPVSLGDQASISCRSSQIIVHSNANTYLEWFLQKPGQSPKLLIYKVSNRFSGVPDRFSGSGSGTDFTLKISRVEAEDLGVYYCFQGSHVPYTFGGGTKLEIK |
| 0.0435 µg/mL | 4.56 nM | 0.029 µg/mL | 0.0306 µg/mL | 0.788 µg/mL | m8H4 (antibody, V domains shown, Murine hybridoma IgG (printed 'mIgG'); also called 8H4-mIgG; 8H4 murine) VH: EVKLVESGGGLVKPGGSLKLSCAASGFTFRSYGMSWARQIPEKRLEWVASISSGGTTYYLGSVQGRFTISRDNARNILYLQMSSLRSEDTAMYYCARGYDAGFAYWGQGTLVSVSE VL: DIVLTQSPASLAVSLGQRATISCRASQSVSTSSYSYMHWYQQKPGQPPKLLIKYASNLESGVPARFSGSGSGTDFTLNIHPVEEEDTATYYCQNSWEIPYTFGGGTKLEIK |
| 0.0453 µg/mL | 1.35 nM | 0.0651 µg/mL | 0.0289 µg/mL | 0.872 µg/mL | m13C5 (antibody, V domains shown, Murine hybridoma IgG (printed 'mIgG'); also called 13C5-mIgG; 13C5 murine) VH: EVKLVESGGGLVKPGGSLKLSCAASGFIFRSYGMSWVRQTPEKRLEWVASISSGGSTYYPDSVKGRFTISRDNARNILYLQMSSLRSEDTAMYDCARGYDSGFAYWGQGTLVTVSE VL: DIVLTQSPASLAVSLGQRATISCRASQSVSTSSSSFMHWYQQKPGQPPKLLIKYASNLESGVPARFSGSGSGTDFTLNIHPVEEEDTATYYCQHSWEIPYTFGGGTKLEIKR |
| 0.0478 µg/mL | 3.59 nM | 0.0487 µg/mL | 0.0211 µg/mL | 0.655 µg/mL | m15F1 (antibody, V domains shown, Murine hybridoma IgG (printed 'mIgG'); also called 15F1-mIgG; 15F1 murine) VH: EEKLVESGGGLVKPGGSLKLSCAASGFSFSSYGMSWVRQTPEKRLEWVASISSGGSIYYPDSVKGRFTISRDNARNILYLQMSSLRSEDTAMYYCARGYDAGFAFWGQGTLVTASA VL: DIVLTQSPASLAVSLGQRATISCRASQSVSTSSYSYVHWYQQKPGQPPKLLIKYASNLESGVPARFSGSGSGTDFTLNIHPVEEEDTATYYCQHSWEIPYTFGGGTKLEIK |
| – | 2.28 nM | – | – | – | ch13C5 (antibody) VH: EVKLVESGGGLVKPGGSLKLSCAASGFIFRSYGMSWVRQTPEKRLEWVASISSGGSTYYPDSVKGRFTISRDNARNILYLQMSSLRSEDTAMYDCARGYDSGFAYWGQGTLVTVSE light: not shown |
| 0.0337 µg/mL | 4.78 nM | 0.0312 µg/mL | 0.0491 µg/mL | 0.613 µg/mL | m5G9 (antibody, V domains shown, Murine hybridoma IgG (printed 'mIgG'); also called 5G9-mIgG; 5G9 murine) VH: EVKLVESGGGLVKPGGSLKLSCAASGFTFRSYGMSWVRQTPEKRLEWVASISSGGTTYYPDSVKGRFIISRDNARNILYLQMSSLRSEDTAMYYCAKGYDSGFAYWGQGTLVIVSA VL: DIVLTQSPPSLAVSLGQRATISCRASQSVSTSSSSYMHWYQQKPGQPPKLLIKYASNLESGVPARFSGSGSGTDFTLNIHPVEEEDTATYYCQHSWEIPYTFGGGTKLEIK |
| 0.0359 µg/mL | 0.19 nM | 0.0459 µg/mL | 0.0163 µg/mL | 0.71 µg/mL | m5G11 (antibody, V domains shown, Murine hybridoma IgG (printed 'mIgG'); also called 5G11-mIgG; 5G11 murine) VH: QVQLKQSGPGLVQPSQSLSITCTVSGFSLTTYGVHWVRQSPGKGLEWLGVIWRGVTTDYNAAFMSRLTITKDNSKSQVFFKMNSLQANDTAIYYCARLGFYAMDYWGQGTSVTVSS VL: SIVMTQTPKFLLVSAGDRVTITCKASQSVSNDVAWYQQKPGQSPKLLIYYAANRYTGVPDRFTGSGYGTDFTFTISIVQAEDLAVYFCQQDYTSPYTFGGGTKLEIK |
| – | 0.286 nM | – | – | – | ch5G11 (antibody, Mouse VH linked to a human constant region) VH: QVQLKQSGPGLVQPSQSLSITCTVSGFSLTTYGVHWVRQSPGKGLEWLGVIWRGVTTDYNAAFMSRLTITKDNSKSQVFFKMNSLQANDTAIYYCARLGFYAMDYWGQGTSVTVSS light: SIVMTQTPKFLLVSAGDRVTITCKASQSVSNDVAWYQQKPGQSPKLLIYYAANRYTGVPDRFTGSGYGTDFTFTISIVQAEDLAVYFCQQDYTSPYTFGGGTKLEIKRTVAAPSVFIFPPSDEQLKSGTASVVCLLNNFYPREAKVQWKVDNALQSGNSQESVTEQDSKDSTYSLSSTLTLSKADYEKHKVYACEVTHQGLSSPVTKSFNRGEC |
| 0.0678 µg/mL | 2.33 nM | 0.0576 µg/mL | 0.0291 µg/mL | 0.868 µg/mL | m4A8 (antibody, V domains shown, Murine hybridoma IgG (printed 'mIgG'); also called 4A8-mIgG; 4A8 murine) VH: QVQLKQSGPGLVQPSQSLSITCTVSGFSLTSYGVHWVRQSPGKGLEWLGVIWSGGITDYNAAFKSRLSISKDNSKSQVFFKMNSLQANDTAIYFCARLGFYAMDYWGQGTSVTVSS VL: QIVLTQSPAIMSASPGEKVTMTCSANSSVSYMHWYQQKSGTSPKRWIYDTSKLASGVPARFSGSGSGTSYSLTISSMGAEDAATYYCQQWSSNPWTFGGGTKLEIK |
| 0.041 µg/mL | 1.53 nM | 0.0182 µg/mL | 0.0082 µg/mL | 0.344 µg/mL | m8C6 (antibody, V domains shown, Murine hybridoma IgG (printed 'mIgG'); also called 8C6-mIgG; 8C6 murine) VH: QVQLKQSGPGLVQPSQSLSITCTVSGFSLTSYGVHWVRQSPGKGLEWLGVIWSGGVTDYNAAFISRLSISKDNSKSQVFFKMNSLQANDTAIYYCARLGFYAMDYWGQGTSVTVSS VL: SIVMTQTPKFLLVSAGDRVTITCKASQSVSNDVGWYQQKPGQSPKLLIYYASNRYSGVPDRFTGSGYGTDFTFTISTVQAEDLAVYFCQQDYTSPYTFGGGTKLEIK |
